Measurements taken from paper PMC7321188.

Tests used:
Details in all cases: remark: other sources report otherwise
[1] = target: G2019S LRRK2-GFP (Parkinson's disease mutant of Leucine-Rich Repeat Kinase 2, GFP fusion) (UniProt Q5S007); test: fluorescence fluctuation spectroscopy (number and brightness + photon counting histogram); two-photon confocal, cytosol of live differentiated SH-SY5Y cells at 37 °C; brightness normalised to monomeric GFP; LRRK2-GFP below 300 nM
[2] = target: G2019S LRRK2-GFP (Parkinson's disease mutant of Leucine-Rich Repeat Kinase 2, GFP fusion) (UniProt Q5S007); test: fluorescence fluctuation spectroscopy (number and brightness) by TIRF microscopy; TIRF, near the plasma membrane of live differentiated SH-SY5Y cells; brightness normalised to monomeric GFP
[3] = target: WT LRRK2-GFP (Leucine-Rich Repeat Kinase 2, wild type, GFP fusion) (UniProt Q5S007); test: as above

normalized brightness (sample over the monomer control) [1] | normalized brightness (sample over the monomer control) [2] | normalized brightness (sample over the monomer control) [3] | Substance
2.1 | 2.5 |  | G2019S LRRK2-GFP (Parkinson's disease mutant of Leucine-Rich Repeat Kinase 2, GFP fusion), Q5S007 1-2527
 |  | 2.5 | WT LRRK2-GFP (Leucine-Rich Repeat Kinase 2, wild type, GFP fusion), Q5S007 1-2527
